From US20260226189A1 (PHILOGEN S P A, published 2026)
Where a chain is given by its changes, count along the chain named.

Columns and labels:
[1] = molecular target: T1, human carcinoembryonic antigen (CEA, CEACAM5) on cells or tumor tissue (human, UniProt P06731 35-685); assay: cell-based or functional assay
T1 sequence (looked up): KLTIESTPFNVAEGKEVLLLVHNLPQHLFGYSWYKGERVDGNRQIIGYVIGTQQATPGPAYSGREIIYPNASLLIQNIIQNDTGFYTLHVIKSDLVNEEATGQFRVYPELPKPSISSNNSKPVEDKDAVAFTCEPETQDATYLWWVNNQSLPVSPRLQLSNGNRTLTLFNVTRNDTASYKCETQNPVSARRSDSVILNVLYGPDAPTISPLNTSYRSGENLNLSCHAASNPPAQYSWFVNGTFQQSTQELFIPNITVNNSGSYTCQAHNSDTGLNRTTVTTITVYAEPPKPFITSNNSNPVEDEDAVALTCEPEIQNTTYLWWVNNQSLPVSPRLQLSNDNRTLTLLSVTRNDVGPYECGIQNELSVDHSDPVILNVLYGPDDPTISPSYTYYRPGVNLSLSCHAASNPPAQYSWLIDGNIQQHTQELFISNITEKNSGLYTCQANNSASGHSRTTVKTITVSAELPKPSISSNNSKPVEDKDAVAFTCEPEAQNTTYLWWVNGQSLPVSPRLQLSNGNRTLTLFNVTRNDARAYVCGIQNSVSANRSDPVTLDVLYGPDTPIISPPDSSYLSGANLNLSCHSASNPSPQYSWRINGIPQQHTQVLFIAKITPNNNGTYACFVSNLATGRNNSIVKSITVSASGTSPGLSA

[2] = molecular target: T1, human carcinoembryonic antigen (CEA, …); assay: flow cytometry titration on CT26-CEA cells, IgG1, PE anti-human IgG Fc detection; the CT26-wt curve stays near 0
[3] = molecular target: T2, CEACAM6 transiently expressed on CHO cells (UniProt P40199 35-320, limits assumed); assay: flow cytometry contour plots (SSC against fluorescence) on CHO cells transiently expressing CEACAM6
T2 construct: whole, on cells
T2 sequence (looked up): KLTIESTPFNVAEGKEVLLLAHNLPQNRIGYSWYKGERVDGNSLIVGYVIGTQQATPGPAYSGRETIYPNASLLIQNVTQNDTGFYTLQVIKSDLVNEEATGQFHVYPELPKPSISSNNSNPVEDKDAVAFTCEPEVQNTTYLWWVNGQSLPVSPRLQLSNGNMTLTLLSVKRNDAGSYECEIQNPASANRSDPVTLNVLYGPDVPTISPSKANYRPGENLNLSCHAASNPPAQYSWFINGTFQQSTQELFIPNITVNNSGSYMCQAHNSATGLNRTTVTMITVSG

[4] = molecular target: T3, CEACAM1 transiently expressed on CHO cells (UniProt P13688 35-526, limits assumed); assay: flow cytometry contour plots (SSC against fluorescence) on CHO cells transiently expressing CEACAM1
T3 construct: whole, on cells
T3 sequence (looked up): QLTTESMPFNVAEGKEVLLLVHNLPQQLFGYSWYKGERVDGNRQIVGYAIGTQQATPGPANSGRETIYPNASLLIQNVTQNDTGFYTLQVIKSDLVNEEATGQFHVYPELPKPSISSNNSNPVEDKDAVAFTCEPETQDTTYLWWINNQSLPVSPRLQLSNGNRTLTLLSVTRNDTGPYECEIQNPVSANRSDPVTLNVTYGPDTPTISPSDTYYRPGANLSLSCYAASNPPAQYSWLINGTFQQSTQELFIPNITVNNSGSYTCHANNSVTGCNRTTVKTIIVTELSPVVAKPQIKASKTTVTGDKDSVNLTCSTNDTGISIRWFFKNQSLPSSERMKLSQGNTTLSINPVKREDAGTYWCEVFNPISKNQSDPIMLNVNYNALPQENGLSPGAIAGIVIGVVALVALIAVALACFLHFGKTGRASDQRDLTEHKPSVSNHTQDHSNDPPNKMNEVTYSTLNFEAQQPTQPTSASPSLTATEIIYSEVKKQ

[5] = molecular target: T1, human carcinoembryonic antigen (CEA, …); assay: immunofluorescence on LS174T tumor cryosections, FITC-labelled IgG1
[6] = molecular target: T4, human CEA (N-terminal domain) recombinant fragment containing a C-terminal 6xHis tag and a N-terminal BirA … (human, site specifically biotinylated using BirA (E. coli biotin ligase) at the BirA target sequence); assay: SPR (BIAcore X100), monomeric scFv over biotinylated CEA N-terminal domain on streptavidin chip
T4 construct: Expressed in CHO-S cells and immobilised on a streptavidin chip for all BIAcore runs; also called biotinylated CEA; human CEA N-terminal fragment
T4 chain: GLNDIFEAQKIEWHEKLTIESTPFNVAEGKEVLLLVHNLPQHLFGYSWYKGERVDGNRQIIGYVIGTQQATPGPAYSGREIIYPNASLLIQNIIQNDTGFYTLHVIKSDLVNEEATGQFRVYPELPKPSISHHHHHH

B1: PEA2-anti-CD3 (PUB4) bispecific antibody in scDb-scFv with Fc KIH format (bispecific antibody, human IgG4 S228P)
heavy 1: EVQLLESGGGLVQPGGSLRLSCAASGFTFSRTAMSWVRQAPGKGLEWVSAIDYDGGVTYYADSVKGRFTISRDNSKNTLYLQMNSLRAEDTAVYYCAKLTYARFDYWGQGTLVTVSSGGSGGEIVLTQSPGTLSLSPGERATLSCRASQSVSQNHLAWYQQKPGQAPRLLIYLASRRHTGIPDRFSGSGSGTDFTLTISRLEPEDFAVYYCQQSGRVPWTFGQGTKVEIKGGGGSGGGGSGGGGSEVQLLESGGGLVQPGGSLRLSCAASGFTFSRTAMSWVRQAPGKGLEWVSAIDYDGGVTYYADSVKGRFTISRDNSKNTLYLQMNSLRAEDTAVYYCAKLTYARFDYWGQGTLVTVSSGGSGGEIVLTQSPGTLSLSPGERATLSCRASQSVSQNHLAWYQQKPGQAPRLLIYLASRRHTGIPDRFSGSGSGTDFTLTISRLEPEDFAVYYCQQSGRVPWTFGQGTKVEIKGSESKYGPPCPPCPAPEFLGGPSVFLFPPKPKDTLMISRTPEVTCVVVDVSQEDPEVQFNWYVDGVEVHNAKTKPREEQFNSTYRVVSVLTVLHQDWLNGKEYKCKVSNKGLPSSIEKTISKAKGQPREPQVYTLPPCQEEMTKNQVSLWCLVKGFYPSDIAVEWESNGQPENNYKTTPPVLDSDGSFFLYSRLTVDKSRWQEGNVFSCSVMHEALHNHYTQKSLSLSLGK
heavy 2: EVQLVESGGGLVQPGGSLRLSCAASGFTFSTYAMNWVRQAPGKGLEWVGRIRSKYNNYATYYADSVKDRFTISRDDSKNSLYLQMNSLKTEDTAVYYCVRHGNFGNSYVSWFAYWGQGTLVTVSSGGGGSGGGGSGGGGSQAVVTQEPSLTVSPGGTVTLTCRSSTGAVTTSNYANWVQQKPGQAPRGLIGGTNKRAPWTPARFSGSLLGGKAALTITGAQAEDEADYYCALWYSNLWVFGGGTKLTVLGSESKYGPPCPPCPAPEFLGGPSVFLFPPKPKDTLMISRTPEVTCVVVDVSQEDPEVQFNWYVDGVEVHNAKTKPREEQFNSTYRVVSVLTVLHQDWLNGKEYKCKVSNKGLPSSIEKTISKAKGQPREPQVCTLPPSQEEMTKNQVSLSCAVKGFYPSDIAVEWESNGQPENNYKTTPPVLDSDGSFFLVSRLTVDKSRWQEGNVFSCSVMHEALHNHYTQKSLSLSLGK
With B1 as the binder, how does the “EC50, target cell killing (LS174T cells with human PBMCs, 5 days)” value [1] read?
Its value is 40 PM.

What about the “fold potency in target cell killing against the scFvCD3-IgGCEA KIH format” value [1] of the same binder?
The value was 3.5 fold.

B2: F7 antibody in IgG1 format (antibody, V domains shown)
VH: EVQLLESGGGLVQPGGSLRLSCAASGFTFSRTAMSWVRQAPGKGLEWVSAISGSGGSTYYADSVKGRFTISRDNSKNTLYLQMNSLRAEDTAVYYCAKLTYARFDYWGQGTLVTVSS
VL: EIVLTQSPGTLSLSPGERATLSCRASQSVSFPYLAWYQQKPGQAPRLLIYGASSRATGIPDRFSGSGSGTDFTLTISRLEPEDFAVYYCQQSGRVPWTFGQGTKVEIK
notes: also called F7 IgG
For B2, which EC50 [2] is on record?
The EC50 was 0.77 nM.

B3: PEA2 antibody in IgG1 format (antibody, V domains shown)
VH: B2 VH with S52D, G53Y, S54D, S57V
VL: EIVLTQSPGTLSLSPGERATLSCRASQSVSQNHLAWYQQKPGQAPRLLIYLASRRHTGIPDRFSGSGSGTDFTLTISRLEPEDFAVYYCQQSGRVPWTFGQGTKVEIKR
notes: also called PEA2 IgG1; PEA2 (IgG1)
For B3, which EC50 [2] is on record?
The EC50 was 0.29 nM.

B4: PEA2 antibody as used in Example 8 (flow cytometry on transfected CHO cells) (antibody, V domains shown)
VH: B2 VH with S52D, G53Y, S54D, S57V
VL: B2 VL with F31Q, P32N, Y33H, G51L, S54R, A56H
notes: also called antibody PEA2
Does B4 bind [3]?
Result: no binding (tested: 50 nM)

Does B4 bind [4]?
Result: no binding (tested: 50 nM)

B5: PEA2-anti-CD3 (PUB4) bispecific antibody in scFv-IgG4 KIH format (bispecific antibody)
heavy 1: EVQLVESGGGLVQPGGSLRLSCAASGFTFSTYAMNWVRQAPGKGLEWVGRIRSKYNNYATYYADSVKDRFTISRDDSKNSLYLQMNSLKTEDTAVYYCVRHGNFGNSYVSWFAYWGQGTLVTVSSGGGGSGGGGSGGGGSQAVVTQEPSLTVSPGGTVTLTCRSSTGAVTTSNYANWVQQKPGQAPRGLIGGTNKRAPWTPARFSGSLLGGKAALTITGAQAEDEADYYCALWYSNLWVFGGGTKLTVLGGGGSGGGGSGGGGSEVQLLESGGGLVQPGGSLRLSCAASGFTFSRTAMSWVRQAPGKGLEWVSAIDYDGGVTYYADSVKGRFTISRDNSKNTLYLQMNSLRAEDTAVYYCAKLTYARFDYWGQGTLVTVSSASTKGPSVFPLAPCSRSTSESTAALGCLVKDYFPEPVTVSWNSGALTSGVHTFPAVLQSSGLYSLSSVVTVPSSSLGTKTYTCNVDHKPSNTKVDKRVESKYGPPCPPCPAPEFLGGPSVFLFPPKPKDTLMISRTPEVTCVVVDVSQEDPEVQFNWYVDGVEVHNAKTKPREEQFNSTYRVVSVLTVLHQDWLNGKEYKCKVSNKGLPSSIEKTISKAKGQPREPQVYTLPPCQEEMTKNQVSLWCLVKGFYPSDIAVEWESNGQPENNYKTTPPVLDSDGSFFLYSRLTVDKSRWQEGNVFSCSVMHEALHNHYTQKSLSLSLGK
heavy 2: EVQLLESGGGLVQPGGSLRLSCAASGFTFSRTAMSWVRQAPGKGLEWVSAIDYDGGVTYYADSVKGRFTISRDNSKNTLYLQMNSLRAEDTAVYYCAKLTYARFDYWGQGTLVTVSSASTKGPSVFPLAPCSRSTSESTAALGCLVKDYFPEPVTVSWNSGALTSGVHTFPAVLQSSGLYSLSSVVTVPSSSLGTKTYTCNVDHKPSNTKVDKRVESKYGPPCPPCPAPEFLGGPSVFLFPPKPKDTLMISRTPEVTCVVVDVSQEDPEVQFNWYVDGVEVHNAKTKPREEQFNSTYRVVSVLTVLHQDWLNGKEYKCKVSNKGLPSSIEKTISKAKGQPREPQVCTLPPSQEEMTKNQVSLSCAVKGFYPSDIAVEWESNGQPENNYKTTPPVLDSDGSFFLVSRLTVDKSRWQEGNVFSCSVMHEALHNHYTQKSLSLSLGK
light: EIVLTQSPGTLSLSPGERATLSCRASQSVSQNHLAWYQQKPGQAPRLLIYLASRRHTGIPDRFSGSGSGTDFTLTISRLEPEDFAVYYCQQSGRVPWTFGQGTKVEIKRTVAAPSVFIFPPSDEQLKSGTASVVCLLNNFYPREAKVQWKVDNALQSGNSQESVTEQDSKDSTYSLSSTLTLSKADYEKHKVYACEVTHQGLSSPVTKSFNRGEC
How did the “EC50, target cell killing (LS174T cells with human PBMCs, 5 days)” value [1] turn out when B5 was run?
Its value is 140000 nM.

B6: anti-hen egg lysozyme antibody KSF in IgG1 format (antibody, V domains shown)
VH: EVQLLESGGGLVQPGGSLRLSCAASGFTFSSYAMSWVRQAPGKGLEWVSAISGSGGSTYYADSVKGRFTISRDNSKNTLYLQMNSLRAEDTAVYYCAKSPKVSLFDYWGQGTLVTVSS
VL: SSELTQDPAVSVALGQTVRITCQGDSLRSYYASWYQQKPGQAPVLVIYGKNNRPSGIPDRFSGSSSGNTASLTITGAQAEDEADYYCNSSPLNRLAVVFGGGTKLTVLG
notes: Negative control; It was conjugated to FITC for the immunofluorescence experiments; also called KSF IgG1; KSF (IgG1)
Does B6 bind [5]?
Result: no binding (tested: 10 ug/mL)

B7: F7 antibody in scFv format (scFv)
scFv: EVQLLESGGGLVQPGGSLRLSCAASGFTFSRTAMSWVRQAPGKGLEWVSAISGSGGSTYYADSVKGRFTISRDNSKNTLYLQMNSLRAEDTAVYYCAKLTYARFDYWGQGTLVTVSSGGGGSGGGGSGGGGEIVLTQSPGTLSLSPGERATLSCRASQSVSFPYLAWYQQKPGQAPRLLIYGASSRATGIPDRFSGSGSGTDFTLTISRLEPEDFAVYYCQQSGRVPWTFGQGTKVEIK
notes: also called F7 scFv
For B7, which Kd [6] is on record?
Its Kd is 50 nM.

B8: PEA2 antibody in scFv format (scFv)
scFv: B7 scFv with S52D, G53Y, S54D, S57V, F162Q, P163N, Y164H, G182L, S185R, A187H
notes: also called PEA2 scFv
For B8, which Kd [6] is on record?
Its Kd is 7.7 nM.
